Measurements: US20250011413A1 (MCMASTER UNIVERSITY, published 2025)
Substitutions are numbered along the chain they refer to. Names may count otherwise. “And” between values parts separate entries of the source, which are not always exact repeats. Identical values can stand only once.

T1: PF4/heparin complex (human PF4 complexed with heparin) (human, UniProt P02776 32-101)
T1 construct: Multimeric complex of PF4 with heparin (not a protein); In the EIAs: PF4 captured on biotinylated heparin on streptavidin plates; In the SRA: platelets with 0.2 U/mL heparin; also called PF4 and heparin complexes
T1 sequence: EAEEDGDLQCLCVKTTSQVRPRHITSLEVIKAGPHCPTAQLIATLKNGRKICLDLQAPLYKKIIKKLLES

B1: Mutant E scFv, scFv(Y156H, D180G, Q233P) (scFv)
scFv: DIQMIQSQKFMSTSVGDRVTVTCKASQNVGTNVAWYQQKPGQSPNALIYSASYRYSGVPDRFTGSGSGTDFTLTITNVQSEDLADYFCQQYNSYPLTFGTGTKLDLKGGGGSGGGGSGGGGSVQLQQSGAELVKPGASVKLSCKASGYTFTNYFIHWVKQRPGQGLEWIGEINPKNGDTGFNEKFESRATLTVDKSSSTAYMQLSSLTSEDSAIYYCTRSPYGNNYGFTYWGPGTLVTVSA
notes: VL-linker-VH; histidine-tagged, from E. coli BL21; also called Mut E; not shown: histidine tag from the pADL-22c vector
B2: Mutant F scFv, scFv(E183V, E186K, G223R) (scFv)
scFv: B1 scFv with H156Y, K175R, G180D, E183V, E186K, G223R, P233Q
notes: VL-linker-VH; histidine-tagged, from E. coli BL21; also called Mut F; not shown: histidine tag from the pADL-22c vector

Columns and labels:
[1] = target: T1, PF4/heparin complex (human PF4 …); assay: competition EIA, scFv 50 µg/mL; competitor HIT-negative sera antibodies, n=10
Protocol: (§1) Inhibitory PF4/heparin IgG-specific Streptavidin Enzyme Immunoassay (EIA). The binding activity of wildtype and mutant scFv antibodies to PF4/heparin complexes was measured using an inhibitory PF4/heparin IgG-specific EIA with a streptavidin-biotin capture system. Before performing this protocol, 96-well NUNC Maxisorp plates (ThermoFisher) were coated with 10 μg/mL streptavidin for 24 h. Plates were then blocked with 3% bovine serum albumin (BSA) in phosphate buffered saline (PBS) for 2 h at room temperature. Plates were then coated with 1 U/mL biotinylated-heparin for 1 h followed by 30 μg/mL PF4 for 1 h. Increasing concentrations of wildtype or mutant scFv were added and incubated for 1 hr at room temperature. Without removing wildtype or scFv, HIT patient sera in a 1:50 dilution or full-length KKO (2 μg/mL) was then incubated for 1 h at room temperature. After washing, alkaline phosphatase-conjugated anti-human or anti-mouse IgG (Jackson Immuno Research Laboratories, Inc., West Grove, PA) was added at a 1:4000 dilution and incubated for 1 h temperature. For detection, 1 mg/mL p-nitrophenylphosphate (PNPP, Sigma-Aldrich) substrate dissolved in 1 mol/L diethanolamine (DEA) buffer (pH 9.6) was added. The optical density (OD) was measured at 2 min intervals for 30 min at 405 nm (OD₄₀₅ₙₘ) using a BioTek 800 TS plate reader (BioTek Instruments Inc., Winooski, VT) to determine if anti-PF4/heparin antibody binding was inhibited. Results were reported as a decrease in OD (absorbance at 405 nm) from baseline levels.
Sera (n=10) from confirmed HIT-negative patients (EIA-positive/SRA-negative) containing anti-PF4/heparin antibodies were then used in the same EIA with scFv constructs to determine if antibody binding was decreased in this cohort (Table 5).

[2] = target: T1, PF4/heparin complex (human PF4 …); assay: BLI (Octet), biotinylated PF4/heparin on streptavidin sensors, scFv at 1 µg/mL, 1:1 model, mean ± s.d.
Protocol: BLI experiments were performed using wildtype scFv, mutant B, mutant C, mutant D, mutant E, and mutant F at 1 μg/mL. Binding was measured against immobilized biotinylated PF4/heparin complexes on streptavidin biosensors. b) Table showing kinetic data of wildtype and mutant scFv, including binding responses and association and dissociation rates. All data was analyzed based on a 1:1 homogenous ligand binding model using Octet®) User Software version 3.1.
(§2) The Octet-QK Red 96 (FortéBio, Menlo Park, CA) instrumentation was used to conduct all BLI experiments. A 96-well microtiter plate (black, flat-bottom) was used to hold 200 μL per well of either sample or buffer. Pre-coated streptavidin biosensor tips (FortéBio) were hydrated in phosphate buffered saline (PBS) containing 1% bovine serum albumin (BSA, Sigma-Aldrich) before performing all kinetic assays. Each step was performed at an operating temperature of 23° C. with agitation at 1000 rpm. Streptavidin tips were first equilibrated in PBS+1% BSA to establish a baseline. […] The PF4-coated tips were then dipped into PBS+1% BSA for 13 minutes to re-establish a baseline. Tips were then incubated in an analyte solution containing half-fold dilutions of wildtype scFv (4.0, 2.0, 1.0, 0.5, 0.25 μg/mL in PBS+1% BSA) for 10 minutes to measure association. For mutant scFv association, tips were incubated in an analyte solution containing 200 μL of each mutant and wildtype scFv at a final concentration of 1 μg/mL in PBS+1% BSA. Antibody dissociation steps were performed by dipping sensors in wells containing PBS+1% BSA for 56 minutes. The following negative controls included in these kinetic experiments were also measured: 200 μL of buffer to replace both the antigen and scFv and 200 μL buffer replacing scFv only. Each experiment was performed with PF4 or with PF4/heparin as the immobilized antigen.
BLI experiments were performed to evaluate binding responses and affinities of wildtype and mutant scFv. Biotinylated PF4 alone or complexed with heparin was immobilized on streptavidin biosensors and used to capture wildtype scFv.

[3] = target: T1, PF4/heparin complex (human PF4 …); assay: competition EIA, scFv 50 µg/mL; competitor HIT-negative sera antibodies, n=10; remark: listed apart in the source
[4] = target: T1, PF4/heparin complex (human PF4 …); assay: BLI (Octet), biotinylated PF4/heparin on streptavidin sensors, scFv 1 µg/mL, 1:1 model
Protocol: as §2
(§3) BLI experiments were performed to evaluate binding responses and affinities of wildtype and mutant scFv. Biotinylated PF4 alone or complexed with heparin was immobilized on streptavidin biosensors and used to capture wildtype scFv. Half-fold serial dilutions of wildtype scFv ranging from 0.25 μg/mL to 4 μg/mL were used to determine the optimal concentrations for future experiments PF4 (PF4 FIG. 3; PF4/heparin FIG. 4).

[5] = target: T1, PF4/heparin complex (human PF4 …); assay: BLI (Octet), biotinylated PF4/heparin on streptavidin sensors, scFv 1 µg/mL
Protocol: as §2, §3

[6] = target: T1, PF4/heparin complex (human PF4 …); assay: cell-based or functional assay
[7] = target: T1, PF4/heparin complex (human PF4 …); assay: competition EIA on PF4/biotinylated heparin, scFv 0-160 µg/mL; competitor full-length KKO 2 µg/mL
Protocol: as §1
To further evaluate the binding of mutant and wildtype scFv, their ability to inhibit full-length KKO from binding PF4/heparin complexes was assessed in a modified streptavidin-capture EIA. Biotinylated heparin was immobilized with PF4 on streptavidin-coated plates and incubated with KKO in the presence of scFv at half-fold serial dilutions from 0 to 160 μg/mL. […] Wildtype scFv and mutant C were unable to inhibit full-length KKO binding at these concentrations and IC50 values for these constructs were not calculated.

| Binder | mean OD405nm of bound serum IgG (+ scFv) [1] [OD405nm] | koff [2] [s⁻¹] | kon [2] [M⁻¹ s⁻¹] | mean % inhibition of serum antibody binding [3] [%] | Kd [4] [pM] | fold stronger affinity than wildtype scFv [4] [fold] | average binding response (wavelength shift) [5] [nm] | % inhibition of 14C-serotonin release (SRA), HIT-Positive Patient #1 serum, scFv 50 µg/mL [6] [%] | % inhibition of 14C-serotonin release (SRA), HIT-Positive Patient #1 serum, scFv 75 µg/mL [6] [%] | % inhibition of 14C-serotonin release (SRA), HIT-Positive Patient #2 serum, scFv 50 µg/mL [6] [%] | % inhibition of 14C-serotonin release (SRA), HIT-Positive Patient #2 serum, scFv 75 µg/mL [6] [%] | % inhibition of 14C-serotonin release (SRA), HIT-Positive Patient #3 serum, scFv 50 µg/mL [6] [%] | % inhibition of 14C-serotonin release (SRA), HIT-Positive Patient #3 serum, scFv 75 µg/mL [6] [%] | % inhibition of 14C-serotonin release (SRA), HIT-Positive Patient #4 serum, scFv 50 µg/mL [6] [%] | % inhibition of 14C-serotonin release (SRA), HIT-Positive Patient #4 serum, scFv 75 µg/mL [6] [%] | % inhibition of 14C-serotonin release (SRA), HIT-Positive Patient #5 serum, scFv 50 µg/mL [6] [%] | % inhibition of 14C-serotonin release (SRA), HIT-Positive Patient #5 serum, scFv 75 µg/mL [6] [%] | IC50 [7] | fold increase of binding response against wildtype scFv [5] [fold] |
| --- | --- | --- | --- | --- | --- | --- | --- | --- | --- | --- | --- | --- | --- | --- | --- | --- | --- | --- | --- |
| B1 | 1.08 | 2.78e-05 | 79200 | -34 | 275 | 100 | 0.0907 | 14.4 | 25.6 | 9 | 10.3 | 14.5 | 9.6 | 6.7 | 4.4 | 47.2 | 59.7 | 293 nM and 8.2 µg/mL | – |
| B2 | 1.19 | 1.41e-05 | 50900 | -57 | 292 | – | 0.285 | 97.8 | – | 21.8 | – | 50.6 | – | 50 | – | 90.3 | – | 1.3 µg/mL | 5 |
